Test results taken from patent US20220184120A1 (MINERVA BIOTECHNOLOGIES, published 2022).
Changes are numbered by the printed parent chain.

T1: N-10 peptide (PSMGFR minus 10 amino acids from the N-terminus)
T1 construct: also called N-10 PSMGFR; PSMGFR N-10
T1 peptide: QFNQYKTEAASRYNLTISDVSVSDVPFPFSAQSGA

T2: C-10 peptide (PSMGFR minus 10 amino acids from the C-terminus)
T2 construct: also called C-10 PSMGFR; PSMGFR C-10
T2 peptide: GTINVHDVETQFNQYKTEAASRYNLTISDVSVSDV

T3: N+20/C-27 peptide (20 amino acids added onto the N-terminus and 27 deleted from the C-terminus of PSMGFR)
T3 peptide: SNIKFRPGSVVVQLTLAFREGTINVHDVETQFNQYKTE

T4: NME7-AB (recombinant) (Homo sapiens (Human), UniProt Q9Y5B8 92-376)
T4 construct: the entry ends in a His tag; also called NM23-H7
T4 sequence: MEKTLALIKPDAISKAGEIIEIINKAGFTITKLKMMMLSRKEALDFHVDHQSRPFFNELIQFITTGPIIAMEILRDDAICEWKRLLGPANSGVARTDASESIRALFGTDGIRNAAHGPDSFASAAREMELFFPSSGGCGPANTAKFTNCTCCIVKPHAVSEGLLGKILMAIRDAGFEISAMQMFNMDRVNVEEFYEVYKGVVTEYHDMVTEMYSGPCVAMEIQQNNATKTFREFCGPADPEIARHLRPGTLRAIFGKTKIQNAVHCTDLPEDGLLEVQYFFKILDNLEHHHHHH

T5: N+9/C-9 peptide (9 amino acids added onto the N-terminus and 9 deleted from the C-terminus of PSMGFR)
T5 peptide: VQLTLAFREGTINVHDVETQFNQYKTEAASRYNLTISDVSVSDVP

B1: 25E6 mouse monoclonal antibody (antibody, V domains shown)
VH: EVQLVESGGDLVKPGGSLKLSCAASGFTFSSYGMSWVRQTPDKRLEWVATISNGGRHTFYPDSVKGRFTISRDNAKNTLYLQMSSLKSEDTAMYLCVRQTGTEGWFAYWGQGTLVTVSA
VL: not shown
notes: raised against PSMGFR; also called MN-25E6; anti-PSMGFR antibody 25E6
B2: 28F9 mouse monoclonal antibody (antibody, V domains shown)
VH: QVQLQQPGAELVQPGASVKLSCKASGYTFTGYFLYWVKQRPGHGLEWIGGIHPSNGDTDFNEKFKNKATLTVDISSSTAYMQLSSLTSEDSAVYYCTLLIGVYWGQGTTLTVSS
VL: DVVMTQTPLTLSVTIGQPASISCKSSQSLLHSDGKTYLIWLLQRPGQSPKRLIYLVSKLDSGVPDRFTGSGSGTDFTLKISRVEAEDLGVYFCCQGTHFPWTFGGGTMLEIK
notes: raised against PSMGFR; also called MN-28F9; anti-PSMGFR antibody 28F9
B3: 18G12 mouse monoclonal antibody (antibody, V domains shown)
VH: B2 VH with P7S, Q13K, H43Q, H52N, S54D, D57G, T58I, K65R, I74K, V102N
VL: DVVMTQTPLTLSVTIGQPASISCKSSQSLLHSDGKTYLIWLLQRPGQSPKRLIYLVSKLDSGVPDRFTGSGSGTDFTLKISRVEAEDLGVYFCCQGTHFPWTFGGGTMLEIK
notes: raised against PSMGFR; also called MN-18G12; anti-PSMGFR antibody 18G12
B4: 3C2B1 mouse monoclonal antibody (antibody, V domains shown)
VH: EVMLVESGGGLVKPGGSLKLSCAASGITFSTYTMSWVRQTPEKRLEWVATISTGGDKTYYSDSVKGRFTISRDNAKNNLYLQMSSLRSEDTALYYCARGTTAMYYYAMDYWGQGTSVTVSS
VL: DIVLTQSPASLAVSLGQRATISCRASKSISTSDYNYIHWYQQKPGQPPKLLIYLASNLESGVPARFSGSGSGTDFTLNIHPVEEEDAATYYCQHSRELPLTFGAGTKLELK
notes: raised against PSMGFR; also called MN-3C2B1; anti-PSMGFR antibody 3C2B1
B5: 5C6F3 mouse monoclonal antibody (antibody, V domains shown)
VH: EVMLVESGGGLVKPGGSLKLSCAASGFTFSTYAMSWVRQTPEKRLEWVAAISNGGGYTYYPDSLKGRFTISRDNAKNTLYLQMSSLRSEDTATYYCARRYYDHYFDYWGQGTALTVSS
VL: DVLMTQTPLSLPVSLGDQASISCRSSQTIVHSNGNTYLEWYLQKPGQSPKLLIYKVSNRFSGVPDRFSGSGSGTDFTLKISRVEAEDLGVYYCFQDSHVPLTFGAGTKLELK
notes: raised against PSMGFR; also called MN-5C6F3; anti-PSMGFR antibody 5C6F3
B6: 29H1 mouse monoclonal antibody (antibody, V domains shown)
VH: EVKLEESGGGLVQPGGSMKLSCAASGFTFSDAWMDWVRQSPEKGLEWVAEIRSKATNHATYYAESVKGRFTISRDDSKSSVYLQMNSLRAEDTGIYYCTPLLYGFAYWGQGTLVTVSA
VL: DVVMTQTPLSLPVSLGDQASISCRSGQSLVHSNGHTYLHWYLQKPGQSPRLLIYKVSNRFSGVPDRFSGSGSRADFTLKISRVEAEDLGVYFCSQTTHVPWTFGGGTKLEIK
notes: raised against N+20/C-27; also called N+20/C-27 antibody 29H1
B7: 32C1 mouse monoclonal antibody (antibody, V domains shown)
VH: EVKLEESGGGLVQSGGSMKLSCVASGFTFSNYWMNWVRQSPEKGLEWVAEIRLKSNNYAIHYAESVKGRFTISRDDSKSSVYLQMNNLRAEDTGIYYCTRVPGLDAYWGQGTLVTVSA
VL: B6 VL with G26S, H35N, R50K, R73G, A74T, R82S, T96I, W101Y, K108N
notes: raised against N+20/C-27; also called N+20/C-27 antibody 32C1
B8: 31A1 mouse monoclonal antibody (antibody, V domains shown)
VH: QVQLQQSGAELAKPGASVKMSCKASGYTFTSYWMHWVKQRPGQGLEWIGYINPSTGYTEYNQKFKDKATLTADKSSSTAYMQLSSLTSEDSAVYYCARAYIDYWGQGTTLTVSS
VL: B5 VL with I21F, T28S, S81N, D96V, V99F, L101W, A105G, L111I
notes: raised against N+20/C-27; also called N+20/C-27 antibody 31A1
B9: PSMGFR peptide (Primary Sequence of the MUC1 Growth Factor Receptor) (peptide)
peptide: GTINVHDVETQFNQYKTEAASRYNLTISDVSVSDVPFPFSAQSGA
notes: synthetic peptide immobilised on ELISA plates; also called MUC1* peptide; MUC1* extra cellular domain peptide
B10: B12 mouse monoclonal antibody (antibody, V domains shown)
VH: QAQLKESGPGLVAPSQSLSITCTVSGFSLTSYGVHWVRQPPGKGLEWLGVIWPGGSTNYNSTLMSRMRIIKDNSKSQVFLKMNSLQIDDTAMYYCARDRTPRVGAWFAYWGQGTLVTVSA
VL: IIVLTQSPASLAVSLGQRATISCRASESVATYGNNFMQWYQQKPGQPPKLLIYLASTLDSGVPARFSGSGSRTDFTLTIDPVEADDAATYYCQQNNEDPPTFGGGTKLEIK
notes: raised against PSMGFR; built from framework and CDR entries
B11: B2 mouse monoclonal antibody (antibody, V domains shown)
VH: EVVLVESGGGLVEPGGSLKLSCVASGFAFSTFAMSWIRQTPEKRLEWVAAISNGGGYTYYPDTLKGRFSISRDNAKNTLYLQMSSLRSEDTAVYYCARRYYDLYFDLWGRGTSLIVSS
VL: B5 VL with V2I, T28N, K108R
notes: as for B10
B12: B9 mouse monoclonal antibody (antibody, V domains shown)
VH: EVQVVESGGDLVKPGGSLKLSCAASGFTFSRYGMSWVRQTPDKRLEWVATISSGGTYIYYPDSVKGRFTISRDNAKNTLYLQMSSLKSEDTAMYYCARDNYGSSYDYAMDYWGQGTSVTVSS
VL: QIVLTQSPAIMSASPGEEVTLTCSASSSVSYMHWFQQRPGTSPKLWIYTTSNLASGVPARFSGSGSGTSYSLTISRMEAEDAATYYCQQRSSYPFTFGSGTKLEIK
notes: as for B10
B13: H11 mouse monoclonal antibody (antibody, V domains shown)
VH: B11 VH with S69T, R110Q
VL: B5 VL with V2I, T28N, K108R
notes: as for B10
B14: B7 mouse monoclonal antibody (antibody, V domains shown)
VH: B12 VH
VL: B5 VL
notes: as for B10
B15: 8C7F3 mouse monoclonal antibody (antibody, V domains shown)
VH: B5 VH
VL: B10 VL
notes: as for B10

Target: B9
Test: ELISA

Row | Binder | binding result
1 | B1 | binds
2 | B2 | binds
3 | B3 | binds
4 | B4 | binds
5 | B5 | binds

Target: T1, N-10 peptide (PSMGFR minus 10 amino …)
Test: ELISA

Row | Binder | binding result
6 | B6 | no binding
7 | B7 | no binding
8 | B8 | no binding
9 | B4 | binds
10 | B5 | binds

Target: T2, C-10 peptide (PSMGFR minus 10 amino …)
Test: ELISA

Row | Binder | binding result
11 | B2 | binds
12 | B3 | binds
13 | B6 | binds
14 | B7 | binds
15 | B8 | binds
16 | B4 | no binding

Target: T3, N+20/C-27 peptide (20 amino acids added …)
Test: ELISA

Row | Binder | binding result
17 | B6 | binds
18 | B7 | binds
19 | B8 | binds

These binders were tested against T4, NME7-AB (recombinant) (assay: ELISA (FIG. 2A)).
Method: FIGS. 2A-2I show results of ELISA assays. MUC1* peptides PSMGFR, PSMGFR minus 10 amino acids from the N-terminus aka N−10, or PSMGFR minus 10 amino acids from the C-terminus, aka C−10 are immobilized on the plate and the following are assayed for binding: NME7-AB (FIG. 2A), MN-C2 monoclonal antibody (FIG. 2B), MN-E6 monoclonal antibody (FIG. 2C), or dimeric NME1 (FIG. 2D). […] MUC1* peptides PSMGFR minus 10 amino acids from the N-terminus aka N−10, or PSMGFR minus 10 amino acids from the C-terminus, aka C−10, are immobilized on the plate and the following are assayed for binding: MN-C3 (FIG. 2E) and MN-C8 (FIG. 2F).

Row | Binder | binding result
20 | B9 | binds

Target: T1, N-10 peptide (PSMGFR minus 10 amino …)
Test: ELISA (FIG. 64)

Row | Binder | binding result
21 | B1 | binds
22 | B2 | binds
23 | B3 | binds

Target: B9
Test: ELISA (FIG. 65)

Row | Binder | binding result
24 | B6 | binds
25 | B7 | binds
26 | B8 | binds

Target: T5, N+9/C-9 peptide (9 amino acids added …)
Test: ELISA (FIG. 64A)

Row | Binder | binding result
27 | B1 | binds
28 | B2 | binds
29 | B3 | binds

Target: B9
Test: ELISA (FIG. 201A)

Row | Binder | binding result
30 | B10 | binds
31 | B11 | binds
32 | B12 | binds

Target: T1, N-10 peptide (PSMGFR minus 10 amino …)
Test: ELISA (FIG. 201B)
Method: (§1) FIG. 201A-201C show graphs of ELISA assays to determine the binding of another set of antibodies generated by immunizing animals with the PSMGFR peptide. […] F3, B12, B2, B7, B9, 8C7F3 and H11 all bound to the PSMGFR peptide and to the N−10 peptide.
(§2) This same ELISA assay was performed on the antibodies of the invention (FIG. 64-66 and FIG. 201). Note that only 20A10 exactly matches the binding profile of MNC2 and MNE6. 25E6, 28F9 and 18G12 are all able to bind to the N−10 peptide. 18B4 is the only antibody raised against the PSMGFR peptide that requires the 10 most N-terminal amino acids of the peptide. The color of the bars for each antibody in the ELISA graph are color coded to match the deductive cognate sequence, or a portion thereof, of that antibody. In addition, another set of antibodies was assayed by ELISA (FIG. 201). Of this set, B12, B2, B7, B9, 8C7F3, and H11 bound to the PSMGFR peptide, bound to the N−10 peptide, but not to the C−10 peptide (FIG. 201). Although these antibodies were raised against the N+20/C−27 peptide, all but one, 45C11, still bind to the PSMGFR peptide, albeit at the N-terminal portion of PSMGFR.

Row | Binder | binding result
33 | B10 | binds
34 | B11 | binds
35 | B12 | binds

Target: T2, C-10 peptide (PSMGFR minus 10 amino …)
Test: ELISA (FIG. 201C)
Method: as §1, §2

Row | Binder | binding result
36 | B10 | no binding
37 | B11 | no binding
38 | B13 | no binding
39 | B12 | no binding
40 | B14 | no binding
41 | B15 | no binding
